Series [1] deals with T1, BktBbr (Burkholderia sp. RF2-non_BP3, UniProt Z9IDK7UI24).
T1 construct: synthetic codon-optimised gene in pET-28a(+)-TEV (NdeI/XhoI), E. coli BL21(DE3), Ni-NTA; tetramer
The series can be described thus: X-ray crystal structure, soaked, […] Å. In kind it is binding. As to conditions: 20 mM ligand soak 3 h; CoA tunnel, water-mediated contacts; paper calls CoA esters covalent.

The target in series [2] is T2, BktBbr (Burkholderia sp. RF2-non_BP3, UniProt Z9IDK7UI24, G255A).
T2 construct: synthetic codon-optimised gene in pET-28a(+)-TEV (NdeI/XhoI), E. coli BL21(DE3), Ni-NTA; tetramer
The series can be described thus: coupled alpha-KGDH assay, TAL formation. In kind it is biochemical. The conditions noted are these: acetoacetyl-CoA varied to 200 uM, acetyl-CoA fixed 200 uM; 22 °C.

The target in series [3] is T3, BktBbr (Burkholderia sp. RF2-non_BP3, UniProt Z9IDK7UI24, S254A).
T3 construct: synthetic codon-optimised gene in pET-28a(+)-TEV (NdeI/XhoI), E. coli BL21(DE3), Ni-NTA; tetramer
Nature of the series: coupled alpha-KGDH assay, TAL formation. The format is biochemical. As to conditions: acetoacetyl-CoA varied to 200 uM, acetyl-CoA fixed 200 uM; 22 °C.

The test system of series [4] is CC(=O)SCCNC(=O)CCNC(=O)[C@H](O)C(C)(C)COP(=O)(O)OP(=O)(O)OC[C@H]1O[C@@H](n2cnc3c(N)ncnc32)[C@H](O)[C@@H]1OP(=O)(O)O. The series can be described thus: purified protein. The conditions noted are these: acetyl-CoA as only substrate, 12.5-400 uM, 50 mM sodium phosphate, 3 mM EDTA, 1 mM DTT, 22 °C, 3 uM enzyme.
The target of series [5] is T1, BktBbr. Nature of the series: X-ray crystal structure, soaked, […] Å. In kind it is binding. The conditions noted are these: 20 mM ligand soak 3 h; active site and CoA tunnel; paper calls CoA esters covalent.
The subject of another series is T4, BktBbb.
T4 construct: gene bktB; synthetic codon-optimised gene in pET-28a(+)-TEV, E. coli BL21(DE3), Ni-NTA
The series can be described thus: coupled alpha-KGDH assay, NADH fluorescence. In kind it is biochemical, Burkholderia sp. Bp8998. The conditions noted are these: acetyl-CoA as only substrate, 12.5-400 uM; 50 mM sodium phosphate, 3 mM EDTA, 1 mM DTT; 22 °C; 3 uM enzyme. An excerpt: coupled alpha-KGDH assay, NADH fluorescence on BktBbb | Michaelis-Menten plot of all BktBs and 2-PS with only acetyl-CoA or malonyl-CoA

Series [6] concerns the target T1, BktBbr. Nature of the series: X-ray crystal structure, soaked, […] Å. The conditions noted are these: 20 mM ligand soak 3 h; active site and CoA tunnel; paper calls CoA esters covalent. The format is binding. This is another data set of the same source.
Substrate in series [7]: CC(C)(COP(=O)(O)OP(=O)(O)OC[C@H]1O[C@@H](n2cnc3c(N)ncnc32)[C@H](O)[C@@H]1OP(=O)(O)O)[C@@H](O)C(=O)NCCC(=O)NCCSC(=O)CC(=O)O
Nature of the series: coupled alpha-KGDH assay, NADH fluorescence. In kind it is biochemical, Gerbera hybrid cultivar. The conditions noted are these: malonyl-CoA as only substrate, 12.5-400 uM, 22 °C. The text has this: coupled alpha-KGDH assay, NADH fluorescence on 2-PS | Michaelis-Menten plot of all BktBs and 2-PS with only acetyl-CoA or malonyl-CoA

Substrate in series [8]: CC(=O)SCCNC(=O)CCNC(=O)[C@H](O)C(C)(C)COP(=O)(O)OP(=O)(O)OC[C@H]1O[C@@H](n2cnc3c(N)ncnc32)[C@H](O)[C@@H]1OP(=O)(O)O
Nature of the series: coupled alpha-KGDH assay, NADH fluorescence. The format is biochemical, Cupriavidus necator. The conditions noted are these: acetyl-CoA as only substrate, 12.5-400 uM, 50 mM sodium phosphate, 3 mM EDTA, 1 mM DTT, 22 °C, 3 uM enzyme. The text has this:
coupled alpha-KGDH assay, NADH fluorescence on BktBcn | BktBbr and BktBba have slightly higher kcat/KM than BktBcn and BktBcl

Usually Km stands for the substrate concentration at which the rate is half of its maximum. A word on the kcat: it is the number of substrate molecules converted per active site and unit of time at saturation. Broadly, the kcat/Km is the turnover number divided by the Michaelis constant.

For `CC(=O)CC(=O)SCCNC(=O)CCNC(=O)[C@H](O)C(C)(C)COP(=O)(O)OP(=O)(O)OC[C@H]1O[C@@H](n2cnc3c(N)ncnc32)[C@H](O)[C@@H]1OP(=O)(O)O` [acetoacetyl-CoA], at BktBbr [1], the “X-ray crystal structure, soaked, 2.4 Å” value is on record as “Interaction of acetoacetyl-CoA with BktBbr through water molecules (PDB ID: 9BWP)”. The “coupled alpha-KGDH assay, TAL formation” value at BktBbr [2] is “while G255A performed comparably to the wild-type”; at BktBbr [3] it was “purified mutants of S254A and G251A exhibited overall better enzyme activity for TAL formation”.

Take BktBbr (Burkholderia sp. RF2-non_BP3): in [4], the Km stood at 23.99 ± 13.47 µM, the kcat was 1.203 ± 0.115 s⁻¹ and the kcat/Km is 50200 ± 21000 M⁻¹ s⁻¹.

Turning to `CC(=O)SCCNC(=O)CCNC(=O)[C@H](O)C(C)(C)COP(=O)(O)OP(=O)(O)OC[C@H]1O[C@@H](n2cnc3c(N)ncnc32)[C@H](O)[C@@H]1OP(=O)(O)O` [acetyl-CoA], the “X-ray crystal structure, soaked, 2.2 Å” value at BktBbr [5] was “bound with acetyl-CoA, acetoacetyl-CoA, and butyryl-CoA (PDB IDs: 9BWO, 9BWP, 9BWL)”. In addition, the Michaelis constant (Km) in the series with BktBbb came out at 43.3 ± 16.6 µM.

In the case of `CCCC(=O)SCCNC(=O)CCNC(=O)[C@H](O)C(C)(C)COP(=O)(O)OP(=O)(O)OC[C@H]1O[C@@H](n2cnc3c(N)ncnc32)[C@H](O)[C@@H]1OP(=O)(O)O` [butyryl-CoA], at BktBbr [6], the “X-ray crystal structure, soaked, 2.1 Å” value is recorded as “Binding of butyryl-CoA in the active site (PDB ID: 9BWL)”.

B1: 2-PS (Gerbera hybrid cultivar) (protein)
chain: MGSYSSDDVEVIREAGRAQGLATILAIGTATPPNCVAQADYADYYFRVTKSEHMVDLKEKFKRICEKTAIKKRYLALTEDYLQENPTMCEFMAPSLNARQDLVVTGVPMLGKEAAVKAIDEWGLPKSKITHLIFCTTAGVDMPGADYQLVKLLGLSPSVKRYMLYQQGCAAGGTVLRLAKDLAENNKGSRVLIVCSEITAILFHGPNENHLDSLVAQALFGDGAAALIVGSGPHLAVERPIFEIVSTDQTILPDTEKAMKLHLREGGLTFQLHRDVPLMVAKNIENAAEKALSPLGITDWNSVFWMVHPGGRAILDQVERKLNLKEDKLRASRHVLSEYGNLISACVLFIIDEVRKRSMAEGKSTTGEGLDCGVLFGFGPGMTVETVVLRSVRVTAAVANGN
notes: synthetic codon-optimised gene in pET-28a(+)-TEV, E. coli BL21(DE3), Ni-NTA
As for B1, in series [7], the Km came to 6.93 ± 1.34 µM, the kcat amounted to 0.9298 ± 0.0345 s⁻¹ and the kcat/Km turned out to be 137000 ± 24800 M⁻¹ s⁻¹.

B2: BktBcn (Cupriavidus necator H16) (protein)
chain: MTREVVVVSGVRTAIGTFGGSLKDVAPAELGALVVREALARAQVSGDDVGHVVFGNVIQTEPRDMYLGRVAAVNGGVTINAPALTVNRLCGSGLQAIVSAAQTILLGDTDVAIGGGAESMSRAPYLAPAARWGARMGDAGLVDMMLGALHDPFHRIHMGVTAENVAKEYDISRAQQDEAALESHRRASAAIKAGYFKDQIVPVVSKGRKGDVTFDTDEHVRHDATIDDMTKLRPVFVKENGTVTAGNASGLNDAAAAVVMMERAEAERRGLKPLARLVSYGHAGVDPKAMGIGPVPATKIALERAGLQVSDLDVIEANEAFAAQACAVTKALGLDPAKVNPNGSGISLGHPIGATGALITVKALHELNRVQGRYALVTMCIGGGQGIAAIFERI
notes: synthetic codon-optimised gene in pET-28a(+)-TEV, E. coli BL21(DE3), Ni-NTA; tetramer
For the molecule B2, in [8], the Km was found to be 39.25 ± 20.43 µM, the kcat came to 1.41 ± 0.261 s⁻¹ and the kcat/Km was found to be 41500 ± 16200 M⁻¹ s⁻¹.

(Values after publication PMC12689856, “A highly active Burkholderia polyketoacyl-CoA thiolase for production of triacetic acid lactone” (Nature Communications, 2025).)
